Assay [1] addresses T1, human c-Met/Fc fusion protein (R&D Systems) (human, UniProt P08581 25-932).
T1 construct: Bought reagent; treated here as the same reagent; also called c-Met-Fc (#358-MT/CF, R&D Systems); human c-Met/Fc protein; not shown: Fc part of the bought fusion protein
The experiment in a line: SPR, Biacore T100; antibody captured by human Fab binder on CM5 chip, c-Met-Fc injected. The method, then:
To confirm whether the prepared PEG-introduced antibodies containing PEG with various molecular weights can maintain the binding affinity to the antigen, the binding affinity of the prepared PEG-introduced antibodies to c-Met was measured using Biacore T100(GE) and compared with that of an antibody with no PEG (Ab).
In particular, human Fab binder (GE Healthcare) was fixed on a surface of CM5 chip (#BR-1005-30, GE) according to the manufacturer's manual. About 90 to 120 Ru of each of the PEG-introduced antibodies was captured, and c-Met-Fc (#358-MT/CF, R&D Systems) was injected at various concentrations into the captured PEG-introduced antibody. 10 mM Glycine-HCl (pH 1.5) solution was injected thereto to regenerate the surface. In order to measure affinity, the data obtained from this experiment was fitted using BIAevaluation software (GE Healthcare, Biacore T100 evaluation software).
(In general: In SPR one partner is held on a chip, and binding of the other changes the refractive index at the surface.)

For assay [2], the target named is T1, human c-Met/Fc fusion protein (R&D …). The experiment in a line: ELISA, human c-Met/Fc fusion protein coated on the plate, hybridoma culture supernatant. The method, then:
The hybridoma cell culture obtained in Reference Example 1.1.2 was added in an amount of 50 μL to each well of the plates and incubated for 1 hour. The cells remaining unreacted were washed out with a sufficient amount of Tris-buffered saline and Tween 20 (TBST). Goat anti-mouse IgG-horseradish peroxidase (HRP) was added to the plates and incubated for 1 hour at room temperature. The plates were washed with a sufficient amount of TBST, followed by reacting the peroxidase with a substrate (OPD). Absorbance at 450 nm was measured on an ELISA reader.

The values below come from patent publication US20150335669A1 (SAMSUNG ELECTRONICS, published 2015).

T1 sequence (P08581 25-932 limits assumed): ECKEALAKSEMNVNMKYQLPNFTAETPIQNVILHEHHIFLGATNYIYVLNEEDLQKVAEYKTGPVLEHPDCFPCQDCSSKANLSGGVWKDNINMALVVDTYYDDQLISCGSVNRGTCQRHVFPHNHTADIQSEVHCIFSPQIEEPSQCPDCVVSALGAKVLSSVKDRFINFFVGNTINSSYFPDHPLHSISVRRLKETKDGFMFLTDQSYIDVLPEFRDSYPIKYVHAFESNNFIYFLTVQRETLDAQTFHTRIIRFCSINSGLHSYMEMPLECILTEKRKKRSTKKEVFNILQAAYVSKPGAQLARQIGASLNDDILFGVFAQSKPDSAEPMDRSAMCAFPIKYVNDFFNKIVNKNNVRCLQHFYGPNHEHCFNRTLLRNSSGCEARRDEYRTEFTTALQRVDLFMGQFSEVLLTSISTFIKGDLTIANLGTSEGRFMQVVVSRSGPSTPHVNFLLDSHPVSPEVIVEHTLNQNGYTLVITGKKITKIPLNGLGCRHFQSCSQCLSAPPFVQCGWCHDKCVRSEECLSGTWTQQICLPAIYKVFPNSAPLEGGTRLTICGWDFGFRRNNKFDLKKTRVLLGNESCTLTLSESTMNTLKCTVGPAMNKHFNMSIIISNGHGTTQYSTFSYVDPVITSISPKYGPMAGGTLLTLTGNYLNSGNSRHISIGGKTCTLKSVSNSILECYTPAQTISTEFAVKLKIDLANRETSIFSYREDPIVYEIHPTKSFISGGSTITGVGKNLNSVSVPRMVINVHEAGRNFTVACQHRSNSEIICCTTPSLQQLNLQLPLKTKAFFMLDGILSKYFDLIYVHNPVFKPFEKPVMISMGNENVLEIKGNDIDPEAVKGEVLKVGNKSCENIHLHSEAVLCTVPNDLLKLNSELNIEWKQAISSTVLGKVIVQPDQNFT

B1: PEG-introduced antibody L3-1Y/IgG2 with 30 kDa polyethyleneglycol (antibody, V domains shown)
VH: EVQLVESGGGLVQPGGSLRLSCAASGFTFTDYYMSWVRQAPGKGLEWLGFIRNKANGYTTEYSASVKGRFTISRDNSKNTLYLQMNSLRAEDTAVYYCARDNWFAYWGQGTLVTVSS
VL: DIQMTQSPSSLSASVGDRVTITCKSSQSLLASGNQNNYLAWYQQKPGKAPKMLIIWASTRVSGVPSRFSGSGSGTDFTLTISSLQPEDFATYYCQQSYSRPYTFGQGTKVEIKR
modifications: see heavy chain: the PEG may stand at the N-terminus of a light chain instead; 30 kDa methoxypolyethyleneglycol at the N-terminus of the antibody (N-terminus of a heavy chain or of a light chain; which one is not resolved); mono-PEG per paragraph 213
notes: also called 30kPEG Ab; mono-PEG antibody (30 kDa)
B1 gave a dissociation constant Kd in assay [1] of 0.0619 nM.

B2: PEG-introduced antibody L3-1Y/IgG2 with 10 kDa polyethyleneglycol (antibody, V domains shown)
VH: B1 VH
VL: B1 VL
modifications: see heavy chain: the PEG may stand at the N-terminus of a light chain instead; 10 kDa methoxypolyethyleneglycol at the N-terminus of the antibody (N-terminus of a heavy chain or of a light chain; which one is not resolved); mono-PEG per paragraph 213
notes: also called 10kPEG Ab; mono-PEG antibody (10 kDa)
For B2, in assay [1], the affinity, expressed as Kd, was 0.0859 nM.

B3: anti-c-Met antibody L3-1Y-IgG2 (huAbF46-H4-A1 (IgG2 Fc)) (antibody, V domains shown)
VH: B1 VH
VL: B1 VL
notes: also called antibody with no PEG
B3 came in with a Kd in assay [1] of 0.0823 nM.

B4: PEG-introduced antibody L3-1Y/IgG2 with 20 kDa polyethyleneglycol (antibody, V domains shown)
VH: B1 VH
VL: B1 VL
modifications: see heavy chain: the PEG may stand at the N-terminus of a light chain instead; 20 kDa methoxypolyethyleneglycol at the N-terminus of the antibody (N-terminus of a heavy chain or of a light chain; which one is not resolved); mono-PEG per paragraph 213
notes: also called 20kPEG Ab; mono-PEG antibody (20 kDa)
In assay [1], B4 showed a dissociation constant Kd of 0.0729 nM.

B5: AbF46, mouse monoclonal antibody to c-Met (hybridoma KCLRF-BP-00220) (antibody, V domains shown)
VH: EVKLVESGGGLVQPGGSLRLSCATSGFTFTDYYMSWVRQPPGKALEWLGFIRNKANGYTTEYSASVKGRFTISRDNSQSILYLQMDTLRAEDSATYYCARDNWFAYWGQGTLVTVSA
VL: DILMTQSPSSLTVSAGEKVTMSCKSSQSLLASGNQNNYLAWHQQKPGRSPKMLIIWASTRVSGVPDRFIGSGSGTDFTLTINSVQAEDLAVYYCQQSYSAPLTFGAGTKLELK
notes: Tested as hybridoma culture supernatant in the selection ELISA; also called mouse antibody AbF46
With B5, in assay [2], the binding result is “binds”.

The term Kd denotes the free concentration of one partner at which half of the binding sites on the other are occupied at equilibrium, for simple one-to-one binding.
